T1: 人Nectin-4 (human, UniProt Q96NY8 32-349)
T1 construct: construct not described; also called human Nectin-4; PVRL4
T1 sequence (looked up): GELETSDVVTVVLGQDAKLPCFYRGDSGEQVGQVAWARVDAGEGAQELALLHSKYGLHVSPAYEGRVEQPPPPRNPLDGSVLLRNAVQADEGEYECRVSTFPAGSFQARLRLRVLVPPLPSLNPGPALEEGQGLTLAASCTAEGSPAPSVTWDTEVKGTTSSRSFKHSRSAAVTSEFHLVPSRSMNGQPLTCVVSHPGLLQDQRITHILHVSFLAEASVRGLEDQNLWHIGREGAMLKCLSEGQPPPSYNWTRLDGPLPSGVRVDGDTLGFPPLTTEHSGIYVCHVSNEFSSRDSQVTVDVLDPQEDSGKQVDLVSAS

B1: CMB7-10 (Fc fusion)
chain: QVQLVESGGGLVQAGESLRLSCAASGSIFSINAMAWYRQAPGKQRELVAAITSGGSTKYADSVKGRFTISRDNAKNTVYLQMNSLKPEDTAVYYCAAMDRTTLEYDYWGQGTLVTVSS
notes: Tested as VHH fused to human Fc; also called VHH-Fc; not shown: human Fc fused to the VHH
B2: CMB7-19 (Fc fusion)
chain: B1 chain with E16G, R19G, G26E, I31Y, A35G, Y37F, T57I, T90R, A91G
notes: as for B1
B3: CMB7-22 (Fc fusion)
chain: QVQLVESGGGLVQAGGSLRLSCAASGSIFSINAMGWFRQAPGKQRELVAAITSGGSTNYAVSVKGRFTISSDKAKNTVYLQMNSLKPEDTAVYYCAAARGEPFEYEYWGQGTLVTVSS
notes: as for B1
B4: CMB7-7 (Fc fusion)
chain: B3 chain with V48A, N58K, V61D, S71R, K73N, S84R, A91G, R99T, E106N, L113Q
notes: as for B1
B5: CMB7-8 (Fc fusion)
chain: B3 chain with S27N, I31V, T57I, N58R, A60V, V61D, S71R, K73N, F103Y, E106D
notes: as for B1
B6: CMB7-11 (Fc fusion)
chain: QVQLVESGGGLVQAGGSLRLSCAASGSIFSISAMGWFRQAPGNQREMVAAITKGGSVNYADSVKGRFTITRDNAKNTVYLQMNSLKPEDTAVYYCAAAVGAPFEYDYWGQGTQVTVSS
notes: as for B1
B7: CMB7-12 (Fc fusion)
chain: QVQLVESGGGLVQPGGSLRLACAASGSIFSINVMGWYRQAPGKQREYVASVSRGGSVKYVDSVKGRFTVSRDNAKNTMYLEMNSLKPEDTAIYFCGAETKMGRGFDSWGQGTQVTVSS
notes: as for B1
B8: CMB7-6 (Fc fusion)
chain: QVQLVESGGGLVQPGGSLRLSCAASGSIFSINVMGWYRQAPGKQRELVATITSGGSVNYADSVKGRFTISRDNANNTVYLQMNTLKPEDTAVYYCTADQLGPLGLLSPTIYWGQGTLVTVSS
notes: also called VHH 36; VHH-Fc; not shown: human Fc fused to the VHH
B9: CMB7-20 (Fc fusion)
chain: B8 chain with I31M, V57T, T84S, A97G, L105T, L106F, T109I, I110V, L117Q
notes: as for B1
B10: CMB7-23 (Fc fusion)
chain: B8 chain with I28D, S30T, I51V, V57L, N75K, T84S, L100F, L105H, T109I, L117Q
notes: as for B1
B11: CMB7-18 (Fc fusion)
chain: QVQLVESGGGLVQAGGSLRLSCAASGSIFSINAMGWHRQGPGDQRELVAAITSGGSTKYVDSVKGRFTISRDNAKNTVYLQMNSLKPEDTGVYYCAAMGGSYEYDYWGQGTQVTVSS
notes: as for B1
B12: CMB7-9 (Fc fusion)
chain: QVQLVESGGGLVQPGGSLRLSCAASGSIFSINAMGWYRQAPGKQRELVASITNGGSTKYDDSVKGRFTISRDNAKNTVYLQMNSLKPEDTAVYYCAAASLVVGGTWEYDTWGQGTLVTVSS
notes: as for B1

The source of these data is patent CN114671953A (BORGI BIOMEDICAL SCIENCE AND TECH HANGZHOU LIMITED COMPANY, dated 2022).

Changes are numbered by the printed parent chain.

The target in this test is T1, 人Nectin-4. Put plainly: BLI, VHH-Fc on anti-hIgG Fc probe, human Nectin-4 as analyte. Also on record: 响应: unit not given here. For orientation: In BLI a coated tip is dipped into the sample, and binding shifts an interference pattern.
B1: binding was put at a Kd of 0.958 nM and the 响应 is 0.891.

The molecule B2 had a 响应 of 0.867.

Molecule B3 gave a 响应 of 0.841.

B4 had a 响应 of 0.972.

With B5, the 响应 is 0.915.

On to B6, for which the 响应 was determined as 0.94.

With B7, the 响应 stood at 0.97.

B8 returned a 响应 of 0.835.

B9 gave a 响应 of 0.783.

On to B10, for which the 响应 turned out to be 0.877.

On to B11, for which the affinity, expressed as Kd, was 0.81 nM and the 响应 amounted to 0.729.

On to B12, for which the dissociation constant (Kd) (commonly a measure of binding affinity in units of concentration) is 0.53 nM and the 响应 came to 0.891.
